Data on six molecules can be found in article PMC4006364 (Nature chemical biology, 2014).

Where a chain is given by its changes, count along the chain named. Like-named read-outs stand apart in the source and are kept apart here.

One data set addresses SaXPD (Sulfolobus acidocaldarius, UniProt Q4JC68). To be noted: 1 mM Mg-ATP, pH 6.5, 45 °C.
The target in data set [1] is T1, AfXPB (Archaeoglobus fulgidus, UniProt O29889).
T1 sequence (O29889 1-452): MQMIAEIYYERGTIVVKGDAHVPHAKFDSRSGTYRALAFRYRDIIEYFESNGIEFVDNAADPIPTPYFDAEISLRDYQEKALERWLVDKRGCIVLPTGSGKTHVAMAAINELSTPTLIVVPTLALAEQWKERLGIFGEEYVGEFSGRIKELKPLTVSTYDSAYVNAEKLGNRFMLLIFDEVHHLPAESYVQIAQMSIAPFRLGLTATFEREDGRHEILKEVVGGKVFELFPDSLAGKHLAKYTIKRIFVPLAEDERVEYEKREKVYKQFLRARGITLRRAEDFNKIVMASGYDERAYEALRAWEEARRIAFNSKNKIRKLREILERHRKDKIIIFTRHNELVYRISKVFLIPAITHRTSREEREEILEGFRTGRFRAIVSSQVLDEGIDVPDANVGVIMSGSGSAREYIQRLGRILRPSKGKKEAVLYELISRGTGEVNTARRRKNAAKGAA
Briefly: gel mobility shift, inhibition of […]-G4 DNA binding. To be noted: no Mg2+, pH 7.9, 50 °C; inhibits G4 DNA binding.

Data set [2] concerns the target T1, AfXPB. The data set is described as above.
Data set [3] addresses T2, XPB (AfXPB) WT (Archaeoglobus fulgidus, UniProt O29889 1-452).
T2 sequence: T1 sequence (O29889 1-452)
The data set is described as follows: EMSA. (In EMSA bound probe runs differently from free probe, usually more slowly.)

For another data set, the target named is T3, AfXPB K101R (Archaeoglobus fulgidus, UniProt O29889 1-452, K101R).
T3 sequence: T1 sequence (O29889 1-452) with K101R
Briefly: EMSA.

Data set [4] concerns the target T2, XPB (AfXPB) WT. Briefly: EMSA. This is another data set of the same source.
In the next data set the target is T4, XPD (SaXPD) (Sulfolobus acidocaldarius, UniProt Q4JC68 1-551).
T4 sequence: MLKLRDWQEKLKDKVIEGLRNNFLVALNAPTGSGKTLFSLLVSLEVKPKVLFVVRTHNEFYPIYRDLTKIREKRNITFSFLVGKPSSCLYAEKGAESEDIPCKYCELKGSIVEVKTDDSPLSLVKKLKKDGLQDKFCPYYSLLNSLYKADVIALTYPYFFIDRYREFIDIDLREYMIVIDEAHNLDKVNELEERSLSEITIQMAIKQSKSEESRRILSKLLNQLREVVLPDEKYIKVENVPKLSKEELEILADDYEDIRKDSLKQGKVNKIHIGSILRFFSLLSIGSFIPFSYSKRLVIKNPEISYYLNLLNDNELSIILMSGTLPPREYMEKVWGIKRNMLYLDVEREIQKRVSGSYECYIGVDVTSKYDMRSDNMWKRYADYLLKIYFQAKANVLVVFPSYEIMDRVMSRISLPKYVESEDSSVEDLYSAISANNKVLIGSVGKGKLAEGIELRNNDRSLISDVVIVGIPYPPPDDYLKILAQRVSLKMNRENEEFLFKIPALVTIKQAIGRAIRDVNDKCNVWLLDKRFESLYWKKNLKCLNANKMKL
Briefly: EMSA.

With `Nc1ncnc2c1ncn2[C@@H]1O[C@H](COP(=O)(O)OP(=O)(O)OP(=O)(O)O)[C@@H](O)[C@H]1O` [ATP], the “32P-G4 DNA unwinding assay, native gel” value on SaXPD is listed as “robust G4 DNA unwinding activity in the presence of ATP but not ATP-γS”.

`Nc1ncnc2c1ncn2[C@@H]1O[C@H](COP(=O)(O)OP(=O)(O)OP(O)(O)=S)[C@@H](O)[C@H]1O` [ATP-γS]: on AfXPB [1], the “inhibition of G4 DNA binding” value is reported as “ATP-γS similarly inhibited G4 DNA binding, so inhibition did not depend upon ATP hydrolysis”.

As usually defined, the Ki is a measure of affinity in units of concentration, obtained from inhibition or displacement. On to `Nc1ncnc2c1ncn2[C@@H]1O[C@H](COP(=O)(O)OP(=O)(O)O)[C@@H](O)[C@H]1O` [ADP], for which, at AfXPB [2], the Ki is ~4 mM.

B1: dsDNA (dsDNA)
DNA 1: AGAATGGAGCAGGTGCGCTGCGAGCAGTG
DNA 2: CACTGCTCGCAGCGCACCTGCTCCATTCT
Take B1: the binding result with XPB (AfXPB) WT [3] is reported as “no binding”.

With AGAATGGAGCAGGTGCGCTGCGAGCAGTG (ssDNA) [ssDNA], the binding result with XPB (AfXPB) WT [3] is listed as “no binding”.

As to TGGACCAGACCTAGCAGCTATGGGGGAGCTGGGGAAGGTGGGAATGTGA (structured_DNA) [G4 DNA (TP oligonucleotide)], the binding result with AfXPB K101R is recorded as “no binding”; with XPB (AfXPB) WT [4] it was “binds”; with XPD (SaXPD), “binds”.
